Reference: patent US20240425588A1 (APEXIMMUNE THERAPEUTICS, published 2024)

T1: human TIGIT expressed on the cell surface of Jurkat cells (human, UniProt Q495A1 22-244)
T1 construct: also called Jurkat-hTIGIT; cell surface TIGIT
T1 sequence: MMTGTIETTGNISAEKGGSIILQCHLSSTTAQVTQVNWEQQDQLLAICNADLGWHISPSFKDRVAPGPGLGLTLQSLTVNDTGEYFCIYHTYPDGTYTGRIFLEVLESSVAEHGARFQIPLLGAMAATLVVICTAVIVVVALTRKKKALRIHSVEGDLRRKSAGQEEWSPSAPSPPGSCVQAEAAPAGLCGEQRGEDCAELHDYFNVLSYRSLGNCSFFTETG


Biological target: T1, human TIGIT expressed on the cell …
Assay: flow cytometry on Jurkat-hTIGIT cells
Protocol: Supernatants from ELISA-positive clones or purified antibodies were further tested for their ability to bind to human TIGIT or rhesus TIGIT expressed on the cell surface of Jurkat cells (Jurkat-hTIGIT or Jurkat-rhesTIGIT) by flow cytometry. Jurkat-hTIGIT or Jurkat-rhesTIGIT cells were harvested and 1×10⁵ cells per well plated in 96-well U-bottom plates and the supernatant removed. 50 μl of hybridoma supernatant or purified antibody at the specified dilution or concentration was added to each well and incubated at 4° C. for 30 minutes. Assay plates were washed 2 times with PBS and antibody binding detected using a PE-labeled goat anti-mouse antibody (Biolegend) at 1:400 dilution in PBS for 30 minutes at 4° C. Plates were washed 2 times and analyzed on a BD LSRFortessa X-20 flow cytometer (Becton Dickinson).

Binder	binding result
45.32B10.A4 (antibody, V domains shown, Mouse hybridoma antibody, tested as supernatant or protein G purified) VH: EVQLVESGGVLVKPGGSLKLSCAASGFTFSNYVMSWVRQTPEKRLEWVATITSGGTYTYYPDSVKGRFTISRDNAKNILYLQMSSLRSEDTALYYCTRWLLSLYAMDYWGQGTSVTVSS VL: DIQMTQTTSSLSASLGDRVTITCRASQDISNFLNWYQQKPDGTVKLLIYYTSRLHSGVPSRFSGSGSGTDYSLTISNLEQEDIATYFCQQGKTYPYTFGGGTKVEIK	binds
45.32A8.G6 (antibody, V domains shown, Mouse hybridoma antibody, tested as supernatant or protein G purified) VH: QVQLKESGPGLVAPSHSLSITCTVSGFSLTNYNINWIRQPPGKGLEWLGIIWTGGGTNYNSAFMSTLSINKDNSKSQVFLKMNRMQTDDTTIYYCVRETYFNNYGFYFDYWGQSTTLTVSS VL: EIVLTQSPTTMAASPGEKITITCSASSSISSNYLHWYQQKPGFSPKLLIYRTSNLASGVPARFSGSGSGTSYSLTIGTMEAEDVATYYCQQGSSIPRTFGGGTKLEIK	binds
45.75D4.D3.D9 (antibody, V domains shown, Mouse hybridoma antibody, tested as supernatant or protein G purified) VH: EVQLQQSGPELVKPGASMKMSCKASGYKFTSYVMHWVKQKPGQGLEWIGYIDPYNDGSKYNEKFKGKATLTSDKSSSIAYMELSSLTSEDSAVFYCARGGSRGWYFDVWGAGTTVTVSS VL: DIQMTQSPASLSASVGETVTFTCRTNENIYSYLTWYQQKQGKSPQVLVYNAKTLAEGVPSRFSGSGSGTQFSLKINSLQPEDFGSYFCQHHFGNPLTFGAGTKLELK	binds
45.86C5.C3 (antibody, V domains shown, Mouse hybridoma antibody, tested as supernatant or protein G purified) VH: DVQLQESGPGLVKPSQSLSLTCTVTGYSITSGYDWHWIRHFPGNILEWMGYISDSGNTIYSPSLKSRISITHDTSKNHFFLKLNSVTSEDTATYYCARGSFWYFDVWGAGTTVTVSS VL: DIQMTQSPASLSASVGETVTITCRVSENIYSYLAWYQQKQGKSPQLLVYNTKTLAEGVPSRFSGSGSGTQFSLKINSLQPEDFGSYYCQHHYGNPLTFGAGTKLELK	binds
45.87B8.H2.H5 (antibody, V domains shown, Mouse hybridoma antibody, tested as supernatant or protein G purified) VH: DVQLQESGPGLVKPSQSLSLTCTVTGYSITSAYDWHWIRLFPGHILEWMGYISYSGNTIYNPSLKSRISITHDTSKNHFFLKLNSVTTEDTATYYCARGSFWYFDVWGAGTTVTVSS VL: DIQMTQSPASLSASVGETVTITCRVSEHIYNYLAWYQQKQGKSPQLLVYNAKTLAEGVPSRFSGSGSGTQFSLKINSLQPEDFGTYYCQHNYGNPLTFGAGTKVELK	binds

Next, values leading:

binding result	Binder
binds	hu32B10 (45.32B10.A4) (antibody, V domains shown, Humanized antibody; also called humanized 45.32B10.A4) VH: EVQLLESGGGLVQPGGSLRLSCAASGFTFSNYVMSWVRQAPGKGLEWVSTITSGGTYTYYPDSVKGRFTISRDNSKNTLYLQMNSLRAEDTAVYYCTRWLLSLYAMDYWGQGTTVTVSS VL: DIQMTQSPSSLSASVGDRVTITCRASQDISNFLNWYQQKPGKAVKLLLYYTSRLHSGVPSRFSGSGSGTDYTLTISSLQPEDFATYFCQQGKTYPYTFGGGTKVEIK
binds	45.3D7.F7 (antibody, V domains shown, Mouse hybridoma antibody, tested as supernatant or protein G purified) VH: QVQLQQSGPELVKPGASVKISCKASGYGFSGYWMNWVKQGPGKGLEWIGRIFPGDGDTDYNGKLKDKATLTAYKSSSTAYLQLSSLTSEDSAVYFCARWLGGFTSWGQGTLVTVSA VL: QIVLSQSPAILSASPGEKVTMTCRASASVSYMHWYQQKPGSSPKPWIYATSNLASGVPARFSGSGSGTSYSLTISRVEAEDAATYYCQQWSSDPPTFGAGTKLELK
binds	45.56F7.A1 (antibody, V domains shown, Mouse hybridoma antibody, tested as supernatant or protein G purified) VH: EVQLVESGGALVKPGGSLKLSCAASGFTFSNYAMSWVRQTPEKRLEWVATISSGGSYTYYPDSVKGRFTISRDNAKNTLYLQMSSLRSEDTALYYCARWLLSLYAMDYWGQGTSVTVSS VL: DFQMTQTTSSLSASLGDRVTISCRSSQDISNYLNWYQQKPDGTVKLLIYRTSRLHSGVPSRFSGSGSGTDYSLTISNLEREDIATYFCQQGKTPPYTFGGGTKLEIK
binds	45.50C2.A6 (antibody, V domains shown, Mouse hybridoma antibody, tested as supernatant or protein G purified) VH: QVQLKESGPGLVAPSQSLSITCTVSGFSLTNYNINWIRQPPGKGLEWLGVIWTGGGTNYNSAFMSRLSISKDNSKSQVFLKMNRLQTDDTAIYYCVREAYFSNYGFYFDYWGQGTTLTVSS VL: EIVLTQSPTTMAASPGEKITITCSASSSISSNYLHWYQQKPGFSPKLLIYRTSNLASGVPARFSGSGSGTSYSLTIGTMEAEDVATYYCQQGSSIPRTFGGGTKLEIK
binds	45.62B12.G5 (antibody, V domains shown, Mouse hybridoma antibody, tested as supernatant or protein G purified) VH: DVQLQESGPGLVKPSQSLSLTCTVTGYSITSAYDWHWIRHFPGNILEWMGYIRNSGSTNYNPLLKSRISITHDTSQNHFSLKLNSVTTEDTATYYCARGLFWYFDVWGAGTTVTVSS VL: DIQMTQSPASLSASVGETVTITCRASENIYNYLTWYQQKQGKSPQLLVYNAKTLAEGVPSRFSGSGSGTQFSLKINSLQPEDFGSYYCQHHYGNPLTFGAGTKLELK
